We go through one molecule from patent US20250243271A1 (ALCEA THERAPEUTICS, published 2025).

The target of assay [1] is T1, Recombinant human Notch4 (human, UniProt Q99466 24-1447, limits assumed).
T1 construct: also called Notch4 analyte; Notch4 (antigen)
T1 sequence: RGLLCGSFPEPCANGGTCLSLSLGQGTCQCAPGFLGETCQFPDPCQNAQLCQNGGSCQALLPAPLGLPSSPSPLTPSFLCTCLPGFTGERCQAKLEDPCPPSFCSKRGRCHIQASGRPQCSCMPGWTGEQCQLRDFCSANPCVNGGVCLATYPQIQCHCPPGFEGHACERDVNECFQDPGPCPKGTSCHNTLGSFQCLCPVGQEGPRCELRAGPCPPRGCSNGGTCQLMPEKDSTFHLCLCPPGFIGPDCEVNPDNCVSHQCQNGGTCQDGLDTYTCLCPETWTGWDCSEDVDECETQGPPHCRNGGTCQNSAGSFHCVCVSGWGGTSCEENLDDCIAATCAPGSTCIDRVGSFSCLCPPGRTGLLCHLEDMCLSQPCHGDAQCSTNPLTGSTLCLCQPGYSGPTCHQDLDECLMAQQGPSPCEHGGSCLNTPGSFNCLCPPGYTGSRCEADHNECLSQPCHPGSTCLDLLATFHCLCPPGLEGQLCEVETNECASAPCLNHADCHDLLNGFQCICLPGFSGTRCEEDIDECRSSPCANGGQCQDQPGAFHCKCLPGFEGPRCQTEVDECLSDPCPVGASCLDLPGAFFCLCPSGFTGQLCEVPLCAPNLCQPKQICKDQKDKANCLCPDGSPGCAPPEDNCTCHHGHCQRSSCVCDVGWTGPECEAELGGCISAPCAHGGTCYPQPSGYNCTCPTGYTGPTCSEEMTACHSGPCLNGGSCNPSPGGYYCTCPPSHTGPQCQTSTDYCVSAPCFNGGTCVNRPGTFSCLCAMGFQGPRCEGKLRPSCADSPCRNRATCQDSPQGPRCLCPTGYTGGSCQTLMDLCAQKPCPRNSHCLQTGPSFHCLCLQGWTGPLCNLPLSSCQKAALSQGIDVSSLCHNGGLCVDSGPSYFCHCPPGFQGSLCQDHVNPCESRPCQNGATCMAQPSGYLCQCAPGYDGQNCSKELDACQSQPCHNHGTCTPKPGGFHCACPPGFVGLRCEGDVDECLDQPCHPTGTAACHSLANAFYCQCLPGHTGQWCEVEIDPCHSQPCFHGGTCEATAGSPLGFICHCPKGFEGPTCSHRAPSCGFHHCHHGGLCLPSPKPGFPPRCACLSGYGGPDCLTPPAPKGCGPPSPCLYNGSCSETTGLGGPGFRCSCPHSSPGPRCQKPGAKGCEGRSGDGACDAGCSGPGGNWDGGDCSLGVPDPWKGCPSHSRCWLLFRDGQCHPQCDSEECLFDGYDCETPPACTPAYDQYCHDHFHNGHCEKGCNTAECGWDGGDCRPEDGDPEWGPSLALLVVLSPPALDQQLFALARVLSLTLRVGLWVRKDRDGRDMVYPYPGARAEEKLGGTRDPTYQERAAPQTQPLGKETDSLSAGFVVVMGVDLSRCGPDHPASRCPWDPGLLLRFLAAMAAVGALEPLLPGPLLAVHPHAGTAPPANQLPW
In words: SPR, antibody captured by anti-human IgG Fc on HC30M chip, Notch4 as analyte. Here is the method:
Binding kinetics measurements. Following expression and purification, clones were characterized using surface plasmon resonance (SPR) to determine binding kinetics and epitope binding activity. HC30M chips (polycarboxylate hydrogel surfaces having medium charge density and 30 nm coating thickness) were coated with anti-human Fc antibodies (unlabeled goat anti-human IgG Fc from Southern Biotech) to capture the candidate antibodies. Candidate antibodies were diluted to 10 μg/mL in HEPES-buffered saline Tris-EDTA (HBSTE)) and exposed to the surfaces for 15 minutes. After stabilizing baseline using HBSTE, Notch4 analytes were injected sequentially from a lowest concentration of 0.41 nM to a highest concentration of 300 nM. (Notch4 was diluted in HBSTE+0.5 mg/mL bovine serum albumin (BSA) to obtain a series of 3-fold dilutions.) To assess specificity, experiments were also run using Notch2 as an analyte in a single injection at 100 nM in HBSTE+0.5 mg/mL.
A general note: Surface plasmon resonance follows binding to a sensor surface in real time, without labels.

The next assay concerns the target T2, bovine serum albumin (bovine, UniProt P02769 25-607).
T2 construct: Probe of the polyreactivity assay; also called BSA
In words: polyreactivity assay, reactivity normalized to the highest value for each probe. Here is the method: (§1) Polyreactivity assays. The non-specific reactivity of H07-Lib3 was evaluated towards cardiolipin, keyhole limpet hemocyanin (KLH), lipopolysaccharides (LPS), single-stranded DNA (ssDNA), double-stranded DNA (dsDNA), insulin, and bovine serum albumin (BSA). Additional therapeutic antibodies (bococizumab, efalizumab, gantenerumab, ibalizumab, lenzilumab, and panitumumab) were included in experiments for comparison. The reactivity percentage of each antibody was normalized to the highest reactivity value for each probe. Threshold for acceptable polyreactivity was set to 30% for all probes.

For a further assay, the target named is T3, insulin.
T3 construct: Probe of the polyreactivity assay
The description is as above. The procedure: as §1

For assay [2], the target named is T4, keyhole limpet hemocyanin.
T4 construct: Probe of the polyreactivity assay; also called KLH
The description is as above. The procedure: as §1

The target in assay [3] is T1, Recombinant human Notch4. The assay can be described thus: SPR, antibody captured by anti-human polyclonal Fc antibodies on CM5 chip, Notch4 as analyte at 300 nM. The procedure:
(§2) Binding kinetics measurements. H07-Lib3 binding kinetics were determined using surface plasmon resonance (SPR). CM5 chips were coated with anti-human polyclonal Fc antibodies (Southern Biotech) to capture candidate antibody. Candidate antibody was diluted in HEPES-buffered saline with 0.005% surfactant P20 (HBS-P) and exposed to the surfaces for 20 minutes. […] To assess specificity, experiment was also run using Notch3 as an analyte at 300 nM.

For assay [4], the target named is T1, Recombinant human Notch4. In words: SPR, antibody captured by anti-human polyclonal Fc antibodies on CM5 chip, Notch4 as analyte at 300 nM; Table 4 SPR, Notch4 as analyte. The procedure:
as §2

T2 sequence (P02769 25-607 limits assumed): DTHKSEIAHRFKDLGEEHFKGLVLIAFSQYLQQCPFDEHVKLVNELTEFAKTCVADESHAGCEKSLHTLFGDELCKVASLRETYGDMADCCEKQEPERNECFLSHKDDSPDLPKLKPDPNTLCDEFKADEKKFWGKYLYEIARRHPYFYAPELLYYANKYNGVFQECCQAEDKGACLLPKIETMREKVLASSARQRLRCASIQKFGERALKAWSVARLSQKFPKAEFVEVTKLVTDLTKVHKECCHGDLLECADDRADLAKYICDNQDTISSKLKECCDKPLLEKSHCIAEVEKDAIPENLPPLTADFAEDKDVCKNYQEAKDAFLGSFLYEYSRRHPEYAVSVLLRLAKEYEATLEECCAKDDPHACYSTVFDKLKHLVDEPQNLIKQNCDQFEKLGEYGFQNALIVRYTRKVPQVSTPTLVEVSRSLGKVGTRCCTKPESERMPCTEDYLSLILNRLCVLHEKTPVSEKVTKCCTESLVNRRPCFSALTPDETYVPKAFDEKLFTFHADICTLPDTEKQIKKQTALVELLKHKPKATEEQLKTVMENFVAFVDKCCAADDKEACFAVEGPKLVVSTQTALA

B1: H07-Lib3-Pl1 (antibody, V domains shown)
VH: EVQLVESGGGLVQPGGSLRLSCAASGLPFSSYAMSWVRQAPGKGLELVASIGTAGDAYYPDSVKGRFTISRDNAKNSLYLQMNSLRAEDTAVYYCARVGPFWQGFAFDIWGQGTMVTVSS
VL: DIVMTQSPLSLPVTPGEPASISCRSSQSLLHSSGHNYLHWYLQKPGQSPQLLIYMTYNRASGVPDRFSGSGSGTDFTLKISRVEAEDVGVYYCLQTTHWPHTFGGGTKVEIK
notes: Tested as an antibody captured by anti-human Fc antibodies
What is called Kd is a measure of binding affinity in units of concentration. One may read the koff as the first-order rate constant of dissociation. By kon is commonly meant the rate constant with which the complex forms. Consider B1, for which the Kd came to 1.4 nM with Recombinant human Notch4 [1] and 16.6 nM with Recombinant human Notch4 [4]. For the same molecule, the normalized reactivity (with bovine serum albumin; with insulin; in assay [2]) was less than 30% in each case. The koff with Recombinant human Notch4 [3] stood at 0.00164 s⁻¹. For the same molecule, in the assay with Recombinant human Notch4 [3], the kon came out at 98300 M⁻¹ s⁻¹.
